# In patent publication US20260159579A1 (Pfizer, published 2026):
# Values joined by “and” are separate entries in the source; they are usually repeats but may differ in a detail not shown here. Identical values can stand only once.
# T1: Mouse Fc-human GDF15 (Mu IgG1Fc_Fxa_Hu GDF15) (human)
# T1 construct: Whole entry is the fusion: mouse IgG1 Fc, FXa site and linker, mature human GDF15; described as dimeric; also called Murine dimeric IgG1 Fc-human GDF-15 with FXa cleavage site; control human GDF15
# T1 chain: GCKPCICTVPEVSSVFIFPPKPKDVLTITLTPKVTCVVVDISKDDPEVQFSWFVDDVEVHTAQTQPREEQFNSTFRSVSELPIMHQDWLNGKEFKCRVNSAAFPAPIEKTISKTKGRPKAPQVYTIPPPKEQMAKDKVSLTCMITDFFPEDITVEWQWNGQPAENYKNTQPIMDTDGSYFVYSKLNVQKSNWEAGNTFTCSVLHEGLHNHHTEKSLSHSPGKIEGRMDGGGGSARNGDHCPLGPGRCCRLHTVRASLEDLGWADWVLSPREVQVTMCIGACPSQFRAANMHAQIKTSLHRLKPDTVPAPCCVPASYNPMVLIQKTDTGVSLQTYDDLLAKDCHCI
# T2: Mouse Fc-cynomolgus monkey GDF15 (Mu IgG1Fc_Fxa_Cyno GDF15) (cynomolgus monkey)
# T2 construct: Whole entry is the fusion: mouse IgG1 Fc, FXa site and linker, cynomolgus GDF15; described as dimeric; also called Murine dimeric IgG1 Fc-cyno GDF-15 with FXa cleavage site
# T2 chain: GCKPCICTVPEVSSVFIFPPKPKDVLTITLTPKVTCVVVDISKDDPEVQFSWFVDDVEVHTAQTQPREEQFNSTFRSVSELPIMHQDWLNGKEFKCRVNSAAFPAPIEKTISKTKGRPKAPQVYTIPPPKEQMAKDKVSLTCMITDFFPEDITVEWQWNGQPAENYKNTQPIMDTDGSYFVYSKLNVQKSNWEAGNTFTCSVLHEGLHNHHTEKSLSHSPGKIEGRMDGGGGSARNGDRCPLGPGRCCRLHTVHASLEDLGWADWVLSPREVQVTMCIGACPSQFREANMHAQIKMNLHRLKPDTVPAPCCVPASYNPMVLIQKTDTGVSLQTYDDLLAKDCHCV
# Columns and labels:
# [1] = molecular target: Mouse Fc-mouse GDF15 (Mu IgG1Fc_Fxa_Mu GDF15) (mouse); assay: SPR BIAcore T200, 37C; Fc-GDF15 captured, monomeric Fc-Fab as analyte; average of runs
# [2] = molecular target: Mouse Fc-mouse GDF15 (Mu IgG1Fc_Fxa_Mu GDF15) (mouse); assay: SPR BIAcore T200, 37C; Fc-GDF15 captured, monomeric Fc-Fab as analyte
# [3] = molecular target: Mouse Fc-mouse GDF15 (Mu IgG1Fc_Fxa_Mu GDF15) (mouse); assay: SPR BIAcore T200, 37C; Fc-GDF15 captured, monomeric Fc-Fab as analyte; murine GDF15 ligand (Mu IgG1Fc_Fxa_Mu GDF15), second run
# [4] = molecular target: T1, Mouse Fc-human GDF15 (Mu IgG1Fc_Fxa_Hu …); assay: SPR BIAcore T200, 37C; Fc-GDF15 captured, monomeric Fc-Fab as analyte; human GDF15 ligand (Mu IgG1Fc_Fxa_Hu GDF15), second run
# Description: (§1) To understand the KD value, without the avidity effect, of GDF15_001 binding to GDF15, monomeric Fc-Fab was produced and tested in the same assay used in Example 2. […] Mu IgG1Fc_Fxa_Hu GDF15, Mu IgG1Fc_Fxa_Mu GDF15 and Mu IgG1Fc_Fxa_Cyno GDF15 were captured onto three different flow cells of a CM4 sensorchip (catalogue number BR100534, GE Healthcare) surface using the Mouse Antibody Capture Kit (BR100838, GE Healthcare) according to the manufacturer's protocol. The running and sample buffer was 10 mM HEPES pH 7.4, 0.15M NaCl, 3 mM EDTA, 0.05% P-20 (HBS-EP+). The final capture levels of Mu IgG1Fc_Fxa_Hu GDF15, Mu IgG1Fc_Fxa_Mu GDF15 and Mu IgG1Fc_Fxa_Cyno GDF15 were 19 resonance units (RU), 22 RU and 19 RU respectively. Flow cell 1 was used as a reference flow cell. […] The dissociation was monitored for 1200 seconds and the surface was regenerated with 10 mM Glycine pH 1.7. Binding affinities and rate constants were determined by fitting the resulting sensorgram data to a 1:1 Langmuir model in BIAcore T200 Evaluation software version 2.0 (GE Healthcare).
# [5] = molecular target: T2, Mouse Fc-cynomolgus monkey GDF15 (Mu …); assay: SPR BIAcore T200, 37C; Fc-GDF15 captured, monomeric Fc-Fab as analyte; average of runs
# Description: as §1
# [6] = molecular target: T1, Mouse Fc-human GDF15 (Mu IgG1Fc_Fxa_Hu …); assay: as above
# Description: as §1
# [7] = molecular target: T2, Mouse Fc-cynomolgus monkey GDF15 (Mu …); assay: SPR BIAcore T200, 37C; Fc-GDF15 captured, monomeric Fc-Fab as analyte
# Description: as §1
# [8] = molecular target: T1, Mouse Fc-human GDF15 (Mu IgG1Fc_Fxa_Hu …); assay: as above
# Description: as §1
binder,measurement,setting,value
"monomeric GDF15_001 (CH23LS-GBT-GDF15_001) (Fab, V domains shown, Monovalent 'monomeric Fc-Fab' of GDF15_001 made to measure KD without avidity; also called CH23LS-GDF15_001; monomeric Fc-Fab) VH: QVQLVQSGAEVKKPGSSVKVSCKASGYTFSSYNIDWVRQAPGQGLEWMGGINPIFGTAFYNQKFQGRVTITADESTSTAYMELSSLRSEDTAVYYCAREAITTVGAMDHWGQGTLVTVSS VL: EIVLTQSPATLSLSPGERATLSCRTSQSVHNYLAWYQQKPGQAPRLLIYDASTRADGIPARFSGSGSGTDFTLTISSLEPEDFAVYYCQQFWSWPWTFGQGTKVEIK",Kd,[1],1.97 nM
same,koff,[1],0.00326 s⁻¹
same,kon,[1],1.66e+06 M⁻¹ s⁻¹
same,T½ min,[2],3.39 min and 3.73 min
same,koff,[2],0.00341 s⁻¹ and 0.0031 s⁻¹
same,kon,[2],1.62e+06 M⁻¹ s⁻¹ and 1.7e+06 M⁻¹ s⁻¹
same,Kd,[3],1.82 nM
same,Kd,[4],0.0276 nM
same,Kd,[5],0.062 nM
same,koff,[5],8.43e-05 s⁻¹
same,kon,[5],1.42e+06 M⁻¹ s⁻¹
same,Kd,[6],0.0213 nM
same,koff,[6],3.42e-05 s⁻¹
same,kon,[6],1.59e+06 M⁻¹ s⁻¹
same,Kd,[7],0.0458 nM and 0.0782 nM
same,T½ min,[7],2.57 h and 2.05 h
same,koff,[7],7.48e-05 s⁻¹ and 9.39e-05 s⁻¹
same,kon,[7],1.63e+06 M⁻¹ s⁻¹ and 1.2e+06 M⁻¹ s⁻¹
same,T½ min,[8],8.54 h and 4.2 h
same,koff,[8],2.25e-05 s⁻¹ and 4.58e-05 s⁻¹
same,kon,[8],1.52e+06 M⁻¹ s⁻¹ and 1.66e+06 M⁻¹ s⁻¹
